From article PMC12578645 (Nature Microbiology, 2025)

What was measured:
[1] = biological target: T1, gB-Ecto.H516P.L531E.DS (Human alphaherpesvirus 1, strain KOS, H516P | L531E | A240C | E607C); experiment: SPR; conditions: both partners purified
T1 construct: also called gB-Ecto.H516P.L531E.A240C+E607C (DS); gB-Ecto.516P.531E.DS; not shown: 8xHis-Tag, C-terminal, kept

[2] = biological target: T2, gB-Ecto.H516P.L531E (Human alphaherpesvirus 1, strain KOS, H516P | L531E); experiment: SPR; conditions: both partners purified
T2 construct: also called gB-Ecto.516P.531E; prefusion gB; not shown: 8xHis-Tag, C-terminal, kept

[3] = biological target: T3, HSV-1 gB on infectious HSV-1 virions (Human alphaherpesvirus 1 (HSV-1), …, UniProt P06437); experiment: ELISA; virion-binding ELISA: plates coated with purified authentic live HSV-1 at 50,000 infectious particles per well; monoclonal antibodies in fivefold dilutions from 20 µg/ml; conditions: one partner purified
T3 construct: also called authentic live virus; source: HSV-1 MacIntrye (VR-539; ATCC) propagated in Vero cells, virions purified by ultracentrifugation with a 25% sucrose cushion

[4] = biological target: the molecule itself; experiment: cryo-EM structure

B1: WS.HSV-1.24 Fab (Fab, V domains shown)
VH: QVQLKESGPGLVAPSQSLSITCTVSGFSLTTYGVTWVRQPPGKGLEWLGVIWGDGSTNYHSDLISRLSITKDNSKSQVFLKLSSLQADDTATYYCVSYYGYFDHWGQGTTLTVSS
VL: DIQMTQSPSSLSASLGERVSLTCRASQDIGSSLNWLQQKPDGTIKRLIYATSSLDSGVPKRFSGSRSGSDYSLTISSLESEDFVDYYCLQYASSPPTFGGGTKLEIK
notes: also called WS.HSV-24; source: IgG expressed in Expi293F and purified; reduced and alkylated, digested with immobilized papain; Fab purified (protein G negative selection, Superdex 75 gel filtration)
Kd [1]: 1.86 nM
Kd [2]: 3.2 nM

B2: WS.HSV-1.24 IgG (antibody, V domains shown)
VH: B1 VH
VL: B1 VL
notes: also called WS.HSV-24; source: Expi293F, purified (variable genes cloned into pVRC8400 with species-specific constant regions)
binding result [3]: binds

B3: gB-Ecto.H516P.L531E (HSV-1 glycoprotein B ectodomain stabilized in the prefusion conformation) (domain or fragment)
chain: not shown
modifications: N-linked glycans (densities seen at 141, 398, 430 and 674)
notes: also called H516P + L531E ectodomain; prefusion gB
stoichiometry N [4]: 3
